Target: the molecule itself
Assay: in vitro polymerisation seen by epifluorescence microscopy; Ni-NTA-purified FtsZ-His labelled with NHS-Fluorescein, in FtsZ polymerization buffer (50 mM MES, 50 mM KCl, 10 mM MgCl2, 2 mM GTP, pH 6.5), 40 min at 30 °C

Protein | binding result
Polyhistidine tagged FtsZ from Anabaena sp. PCC 7120 (natural protein, UniProt P45482 1-428, looked up, labelled with NHS-Fluorescein, FtsZ of Anabaena sp; PCC 7120; also called FtsZAna-His; FtsZ-His; source: E. coli BL21 (DE3), purified (Ni-NTA)) MTLDNNQELTYRNSQSLGQPGFSLAVNSSNPFNHSGLNFGQNNDSKKISVENNRIGEIVPGRVANIKVIGVGGGGGNAVNRMIESDVSGVEFWSINTDAQALTLAGAPSRLQIGQKLTRGLGAGGNPAIGQKAAEESRDEIATALEGADLVFITAGMGGGTGTGAAPIVAEVAKEMGALTVGVVTRPFVFEGRRRTSQAEQGIEGLKSRVDTLIIIPNNKLLEVIPEQTPVQEAFRYADDVLRQGVQGISDIITIPGLVNVDFADVRAVMADAGSALMGIGVSSGKSRAREAAIAAISSPLLECSIEGARGVVFNITGGSDLTLHEVNAAAETIYEVVDPNANIIFGAVIDDRLQGEVRITVIATGFTGEIQAAPQQNAANARVVSAPPKRTPTQTPLTNSPAPTPEPKEKSGLDIPDFLQRRRPPKN | binds
Polyhistidine tagged FtsZ from Fischerella muscicola PCC 7414 (natural protein, UniProt A0A2N6JXP9 1-430, looked up, labelled with NHS-Fluorescein, FtsZ of Fischerella muscicola PCC 7414; also called FtsZFm-His; FtsZ-His; source: E. coli BL21 (DE3), purified (Ni-NTA)) MTLDNNQGLTYKNSQSPGQSTFSLAVNSTNPFNHSGLSFGQNNDSKKIEREETRIGDIVPGRVANIKVIGVGGGGSNAVNRMIASDVSGVEFWSINTDAQALTLAAAPSRLQIGQKLTRGLGAGGNPAIGTKAAEESRDEIATALDGADLVFITAGMGGGTGTGAAPIVAEVAKEMGALTVGVVTRPFIFEGRRRISQAEQGIEGLKSRVDTLIIIPNNKLLEVIPEQTPMQEAFRYADDVLRQGVQGISDIITIPGLINVDFADVRAVMADAGSALMGIGIGSGKSRAREAAIAAISSPLLECSIEGARGVVFNITGGSDLTLHEVNAAAETIYEVVDPNANIIFGAVIDDRLQGEVRLTVIATGFTGEAPAAQQSNVTQGRVVQPPPQRRPMQQPPAPNPPTQTPEPKEKGSVLDIPDFLRKRTPPRN | binds

From publication PMC7714070, “The role of the cytoskeletal proteins MreB and FtsZ in multicellular cyanobacteria” (FEBS Open Bio, 2020)
